Laboratory results published in the supplement of paper PMC9876800.

System: peptide library, one residue held at a place counted from the S/T acceptor
Assay: relative phosphorylation of the sub-library (ratio to the mean residue at this position); human; higher = residue favoured
Method in brief: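 Relative sub-library phosphorylation is a ratio to the mean residue at the same position. Purified recombinant kinases were incubated under kinase-specific conditions with biotinylated degenerate peptide sub-libraries, each fixing one residue at one position around a central Ser/Thr, using 50 μM peptide and 50 μM ATP spiked with γ-32P-ATP for 90 min. Spots captured on streptavidin membranes were phosphorimaged and quantified by densitometry.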

Sequence of CSNK2A1, construct: Full length (P68400 whole entry, looked up): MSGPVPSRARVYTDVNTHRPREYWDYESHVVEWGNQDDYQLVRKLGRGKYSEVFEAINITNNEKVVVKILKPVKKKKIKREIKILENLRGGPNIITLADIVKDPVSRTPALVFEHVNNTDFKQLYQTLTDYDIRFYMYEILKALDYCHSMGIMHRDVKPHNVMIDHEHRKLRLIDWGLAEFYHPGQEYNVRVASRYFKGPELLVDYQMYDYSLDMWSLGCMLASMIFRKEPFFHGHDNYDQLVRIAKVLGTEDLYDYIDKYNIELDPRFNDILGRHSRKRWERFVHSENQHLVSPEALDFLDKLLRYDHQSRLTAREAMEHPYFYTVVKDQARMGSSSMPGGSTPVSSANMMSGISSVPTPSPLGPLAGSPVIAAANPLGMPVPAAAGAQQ

CSNK2A1, construct: Full length (from UniProt P68400)
relative phosphorylation
Details | at +1 | at +2 | at +3 | at +4 | at -1 | at -2 | at -3 | at -4 | at -5
A fixed | 0.479 | 1.2 | 0.406 | 0.847 | 0.867 | 1.02 | 0.979 | 1.01 | 1.09
D fixed | 9.09 | 3.13 | 2.81 | 2.06 | 3.14 | 1.45 | 1.78 | 1.79 | 1.46
E fixed | 3.33 | 2.03 | 9.11 | 2.6 | 2.33 | 1.37 | 1.53 | 1.56 | 1.2
F fixed | 0.24 | 0.739 | 0.307 | 0.878 | 0.886 | 1.04 | 0.97 | 0.88 | 0.976
G fixed | 0.561 | 0.782 | 0.533 | 1.06 | 0.687 | 0.891 | 1.65 | 1.03 | 0.98
H fixed | 0.333 | 0.993 | 0.347 | 0.75 | 0.829 | 0.968 | 0.907 | 0.895 | 1.08
I fixed | 0.208 | 0.654 | 0.249 | 0.811 | 0.61 | 0.94 | 0.759 | 0.839 | 0.883
K fixed | 0.23 | 0.374 | 0.236 | 0.53 | 0.48 | 0.458 | 0.566 | 0.76 | 0.963
L fixed | 0.237 | 0.499 | 0.246 | 0.64 | 0.926 | 0.693 | 0.702 | 0.892 | 0.726
M fixed | 0.259 | 0.524 | 0.257 | 0.916 | 0.934 | 0.705 | 0.823 | 0.941 | 0.911
N fixed | 0.5 | 1.42 | 0.455 | 0.904 | 0.796 | 0.813 | 1.05 | 1.04 | 1.05
P fixed | 0.232 | 0.543 | 0.412 | 0.597 | 0.541 | 0.778 | 0.853 | 0.807 | 0.751
Q fixed | 0.352 | 0.68 | 0.4 | 0.832 | 0.922 | 0.678 | 0.869 | 0.867 | 0.808
R fixed | 0.221 | 0.426 | 0.258 | 0.553 | 0.435 | 0.589 | 0.657 | 0.87 | 0.943
V fixed | 0.249 | 0.923 | 0.263 | 0.76 | 0.751 | 0.859 | 0.801 | 0.826 | 0.969
W fixed | 0.236 | 1.16 | 0.328 | 1.32 | 0.914 | 1.12 | 0.897 | 0.927 | 1.15
Y fixed | 0.238 | 0.923 | 0.385 | 0.933 | 0.954 | 2.62 | 1.21 | 1.08 | 1.06
pThr fixed | 5.46 | 1.84 | 1.96 | 6.46 | 1.96 | 1.59 | 2.22 | 1.83 | 1.39
pTyr fixed | 0.808 | 2.14 | 4.29 | 3.87 | 3.49 | 2.41 | 2.37 | 1.4 | 1.47
